Data: patent US20050277575A1, “Therapeutic compositions and methods for treating diseases that involve angiogenesis” (priority 2004, published 2005)
pEC50: −log10 of the molar value.

Columns and labels:
[1] = test system: Human cerebral endothelial cells (HCEC); test: Capillary tube formation in Matrigel, S100A4 induced angiogenesis; type: cell-based; conditions: primary HCEC grown in Matrigel
Source text: Human cerebral endothelial cells (HCEC) were isolated using previously described protocols (Stanimirovic, D., P. Morley, et al. (1996). “Angiotensin II-induced fluid phase endocytosis in human cerebromicrovascular endothelial cells is regulated by the inositol-phosphate signaling pathway.” J Cell Physiol 169(3): 455-67.). Purity of HCEC cultures generated by these procedures was routinely assessed by the immunocytochemical staining for Factor VIII-related antigen and the lack of staining for smooth muscle β-actin, and is estimated to be >95%. The morphological, phenotypic, biochemical and functional characteristics of these HCEC cultures have been described in detail previously (Muruganandam, A., L. M Herx, et al. (1997). “Development of immortalized human cerebromicrovascular endothelial cell line as an in vitro model of the human blood-brain barrier.” Faseb J 11(13): 1187-97).
HCEC were seeded (8×10^4 cells) on a semi-solid basement membrane matrix, Matrigel™ (Collaborative Biomedical Products, Bedford, Mass.)-coated 24-well plates and exposed to serum-free media containing various treatments. […] Confocal apertures for each recorded wavelength were adjusted to a full width half maximum of 20 μm. […] Eight to 32 individual optical sections were collected and the average was calculated. […]

[2] = molecular target: T1, t-PA-mediated plasminogen activation (Homo sapiens, UniProt P00750); test: t-PA-mediated plasminogen conversion kinetics with and without S100A4 (Example 12); type: biochemical; conditions: for acceleration of plasmin formation (K units): 1 μM S100A4, 100 nM plasminogen
T1 construct: purchased Calbiochem
T1 sequence (P00750 36-562): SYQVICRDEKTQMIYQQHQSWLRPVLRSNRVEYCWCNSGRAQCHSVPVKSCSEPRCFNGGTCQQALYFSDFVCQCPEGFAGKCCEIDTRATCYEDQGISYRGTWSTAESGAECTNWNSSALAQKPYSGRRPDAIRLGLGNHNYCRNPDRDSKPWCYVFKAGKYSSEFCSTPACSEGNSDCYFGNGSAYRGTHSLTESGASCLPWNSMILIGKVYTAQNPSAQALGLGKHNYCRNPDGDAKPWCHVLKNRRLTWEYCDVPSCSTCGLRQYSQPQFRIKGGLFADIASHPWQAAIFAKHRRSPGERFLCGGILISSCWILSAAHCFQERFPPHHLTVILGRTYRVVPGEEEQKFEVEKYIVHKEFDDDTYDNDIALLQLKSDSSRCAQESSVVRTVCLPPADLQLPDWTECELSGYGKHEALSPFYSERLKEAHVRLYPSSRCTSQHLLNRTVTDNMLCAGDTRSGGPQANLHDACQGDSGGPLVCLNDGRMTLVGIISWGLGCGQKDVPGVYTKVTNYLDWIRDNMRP
Experimental: The effects of peptide SEQ ID 6, peptide SEQ ID 38 and chimera SEQ ID 39 on acceleration oft-PA-mediated conversion of plasminogen to plasmin induced by S100A4 were measured. The kinetics of t-PA-mediated plasminogen activation were determined by measuring the amidolytic activity of plasmin formed during activation of plasminogen. All the experiments were done in 100 μl volume in 96-well plates in triplicates. Glu-plasminogen (Calbiochem) at the concentration of 100 nM was preincubated at 25° C. for 1 h in the presence or absence of 1 μM recombinant S100A4 in a buffer consisting of 50 mM Tris-HCl, pH 7.4, 100 mM NaCl and 5 mM CaCl2 or 5 mM EGTA. In some experiments, different concentrations of peptides or chimera were preincubated together with proteins. The reaction was initiated by addition of 5 nM t-PA (Calbiochem) and 125 μM chromogenic plasmin substrate, Chromozym PL (Roche). The reactions were monitored at 405 nm for 1.5 h in a SPECTRAmax PLUS^384 microplate spectrophotometer (Molecular Devices) under control of the SOFTmax PRO kinetic program (Molecular Devices). The initial rates of plasmin generation, during the first 10-15 min, were calculated using linear regression analysis of plots of A405 nm versus time 2. The initial rates of plasmin generation were reported in units (K) of A405 nm/min^2×10^3. […] The titration data were analyzed with the four-parameter logistic equation K=(A−D)/(1+(x/C)^B)D. If A, asymptotic minimum, =0, this equation is converted to the Michaelis-Menten equation K=D/(1+(C/[S])^B), where [S] is substrate concentration, D=Vmax, C=Km, and B is the Hill coefficient.
The addition of S100A4 to basal reaction (t-PA plus plasminogen) produced a significant increase in the plasminogen conversion rate. […] The stimulation of the plasminogen conversion by S100A4 was concentration-dependent with the half-maximal effect at 2.4 μM.
The kinetic parameters of t-PA-mediated plasminogen conversion were evaluated in the presence and absence of S100A4 as a function of plasminogen concentrations ranging from 3 nM to 3 μM.

- plasmin generation in the absence of t-PA ([2]; no t-PA): plasmin generation did not take place
- acceleration of plasmin formation (K units) ([2]; presence of Ca2+): 15 fold
- acceleration of plasmin formation (K units) ([2]; presence of EGTA): 11 fold
Substance: S100A4: recombinant human S100A4 protein cloned from human placenta total RNA, Ca-binding protein of S100 family
- concentration of S100A4 from which angiogenesis is induced [1]: ≥ 10 nM
- pEC50 ([2]; concentration-dependent stimulation, read-out: half-maximal effect of stimulation of plasminogen conversion): 5.62
- Km ([2]; plasminogen 3 nM to 3 μM, read-out: Km of the t-PA-mediated plasminogen conversion): 0.059 µM
- increase in the catalytic efficiency (Vmax/Km) of t-PA ([2]; presence of EGTA): 7.6 fold
- increase in the catalytic efficiency (Vmax/Km) of t-PA ([2]; presence of calcium): 10 fold
